Experimental data published in publication doi:10.1101/2022.09.07.507039.

Key:
[1] = molecular target: native Gli123 protein (Mycoplasma mobile); assay: SEC
[2] = molecular target: native Gli123 protein (Mycoplasma mobile); assay: negative-staining EM with single-particle analysis
[3] = molecular target: recombinant Gli123 (Mycoplasma mobile); assay: SEC-SAXS

**Q.** How did the stoichiometry N [1] turn out when native Gli123 protein (natural protein) was run?
**A.** Its stoichiometry N is 2.

**Q.** And the stoichiometry N [2]?
**A.** Its stoichiometry N is 2.

**Q.** How did the stoichiometry N [3] turn out when recombinant Gli123 (natural protein) was run?
**A.** Its stoichiometry N is 2.
